Patent US20220251219A1 (published 2022)
Numbering of substitutions follows the chain as printed. Each block holds one binder with its values, some of them ahead of it.

Tests used:
mouse Sortilin = mouse Sortilin (mouse, UniProt Q6PHU5 74-825); experiment: cell-based or functional assay
human Sortilin = human Sortilin (human, UniProt Q99523 78-830); experiment: cell-based or functional assay
[1] = target: T1, recombinant mouse Sortilin (mouse, UniProt Q6PHU5 74-825); experiment: flow cytometry, 293 cells expressing recombinant mouse Sortilin, 10 ug/ml antibody
T1 construct: also called mSort
Description: (§1) Cells were harvested, plated at 10⁵/ml in a 96 well plate, washed, and incubated in 100 μl PBS containing 10 μg/ml Mab and 2% FBS for 1 hour in ice. Cells were then washed twice and incubated in 100 μl PBS+2% FBS containing 5 μg/ml PE-conjugated anti-human secondary antibody for 30 minutes in ice. Cells were washed twice in cold PBS and data was acquired on a BD FACS Canto. Data analysis and calculation of MFI values was performed with FlowJo (TreeStar) software version 10.0.7.

[2] = target: T2, recombinant human Sortilin (human, UniProt Q99523 78-830); experiment: flow cytometry, 293 cells expressing recombinant human Sortilin, 10 ug/ml antibody
T2 construct: also called hSort; SORT1
Description: as §1

B1: anti-Sortilin antibody S-15 (antibody, V domains shown)
VH: QVQLVQSGAEVKKPGASVKVSCKASGYTFTSYYMSWVRQAPGQGLEWMGIINPSGGSTSYAQKFQGRVTMTRDTSTSTVYMELSSLRSEDTAVYYCARDPSGIAAAGPASRYYYGMDVWGQGTTVTVSS
VL: EIVMTQSPATLSVSPGERATLSCRASQSVSSNLAWYQQKPGQAPRLLIYGASTRATGIPARFSGSGSGTEFTLTISSLQSEDFAVYYCQQARLGPWTFGGGTKVEIK
Percent reduction of Sortilin levels in N2A cells (mouse Sortilin): 76.1%
Percent reduction of Sortilin levels in U251 cells (human Sortilin): 87.8%

B2: anti-Sortilin antibody S-14 (antibody, V domains shown)
VH: B1 VH
VL: DIQMTQSPSSLSASVGDRVTITCRASQSISSYLNWYQQKPGKAPKLLIYGASSLQSGVPSRFSGSGSGTDFTLTISSLQPEDFATYYCQQHYVGPFTFGGGTKVEIK
Percent reduction of Sortilin levels in N2A cells (mouse Sortilin): 58.5%
Percent reduction of Sortilin levels in U251 cells (human Sortilin): 75.4%

B4: anti-Sortilin antibody S-22 (antibody, V domains shown)
VH: QVQLVQSGAEVKKPGSSVKVSCKASGGTFSSYAISWVRQAPGQGLEWMGGIIPIFGTASYAQKFQGRVTITADESTSTAYMELSSLRSEDTAVYYCARQGRKTGYYYYYGMDVWGQGTTVTVSS
VL: DIQMTQSPSTLSASVGDRVTITCRASQSISSWLAWYQQKPGKAPKLLIYKASSLESGVPSRFSGSGSGTEFTLTISSLQPDDFATYYCQQADGHITFGGGTKVEIK
Percent reduction of Sortilin levels in N2A cells (mouse Sortilin): 87.7%
Percent reduction of Sortilin levels in U251 cells (human Sortilin): 92.7%

B5: anti-Sortilin antibody S-21 (antibody, V domains shown)
VH: B4 VH with G50S, S59N, Q99E, G100R, K102Y, T103D
VL: B2 VL with G50A, H91K, Y92A, V93S, G94L
notes: IgG
MFI [1]: 22900 MFI
MFI [2]: 9380 MFI

B6: anti-Sortilin antibody S-22 (antibody, V domains shown)
VH: B4 VH
VL: B4 VL
notes: IgG
MFI [1]: 23200 MFI
MFI [2]: 8940 MFI

B7: anti-Sortilin antibody S-21 (antibody, V domains shown)
VH: B4 VH with G50S, S59N, Q99E, G100R, K102Y, T103D
VL: B2 VL with G50A, H91K, Y92A, V93S, G94L
Percent reduction of Sortilin levels in N2A cells (mouse Sortilin): 71.9%
Percent reduction of Sortilin levels in U251 cells (human Sortilin): 78.7%

B8: anti-Sortilin antibody S-26 (antibody, V domains shown)
VH: EVQLVESGGGLVKPGGSLRLSCAASGFTFSSYSMNWVRQAPGKGLEWVSSISSSSSYIYYADSVKGRFTISRDNAKNSLYLQMNSLRAEDTAVYYCARDRLGRGYKWNWFDPWGQGTLVTVSS
VL: DIQMTQSPSSVSASVGDRVTITCRASQGIDSWLAWYQQKPGKAPKLLIYAASSLQSGVPSRFSGSGSGTDFTLTISSLQPEDFATYYCQQGNSLPPITFGGGTKVEIK
notes: IgG
MFI [1]: 20900 MFI
MFI [2]: 9020 MFI

B9: anti-Sortilin antibody S-2 (antibody, V domains shown)
VH: not shown
VL: B2 VL with G50A, H91S, Y92D, G94S, F96I
Percent reduction of Sortilin levels in N2A cells (mouse Sortilin): 66%
Percent reduction of Sortilin levels in U251 cells (human Sortilin): 96.2%

B10: anti-Sortilin antibody S-19 (antibody, V domains shown)
VH: QVQLVQSGAEVKKPGSSVKVSCKASGGTFSSYAISWVRQAPGQGLEWMGGIIPIFGTASYAQKFQGRVTITADESTSTAYMELSSLRSEDTAVYYCARESRIPGSGYYYYYGMDVWGQGTTVTVSS
VL: B2 VL with G50S, H91T, Y92D, V93G, G94K, F96P
notes: IgG
MFI [1]: 28200 MFI
MFI [2]: 11700 MFI

B13: anti-Sortilin antibody S-28 (antibody, V domains shown)
VH: EVQLVESGGGLVKPGGSLRLSCAASGFTFSSYSMNWVRQAPGKGLEWVSSISSSSNYIYYADSVKGRFTISRDNAKNSLYLQMNSLRAEDTAVYYCARGGLDRWGSFDIWGQGTMVTVSS
VL: not shown
notes: IgG
MFI [1]: 21600 MFI
MFI [2]: 8560 MFI

B15: anti-Sortilin antibody S-18 (antibody, V domains shown)
VH: QVQLVQSGAEVKKPGSSVKVSCKASGGTFSSYAISWVRQAPGQGLEWMGSIIPIFGTANYAQKFQGRVTITADESTSTAYMELSSLRSEDTAVYYCARDKHGRRGYYYYMDVWGKGTTVTVSS
VL: EIVLTQSPATLSLSPGERATLSCRASQSVSSYLAWYQQKPGQAPRLLIYDASNRATGIPARFSGSGSGTDFTLTISSLEPEDFAVYYCQQGANAPPRTFGGGTKVEIK
Percent reduction of Sortilin levels in N2A cells (mouse Sortilin): 58%
Percent reduction of Sortilin levels in U251 cells (human Sortilin): 85.7%

B16: anti-Sortilin antibody S-18 (antibody, V domains shown)
VH: B15 VH
VL: B15 VL
notes: IgG
MFI [1]: 21700 MFI
MFI [2]: 9350 MFI

Results, then the binder that gave them:

Percent reduction of Sortilin levels in N2A cells (mouse Sortilin): 80.7%
Percent reduction of Sortilin levels in U251 cells (human Sortilin): 75.9%
B3: anti-Sortilin antibody S-51 (antibody, V domains shown)
VH: QVQLVESGGGVVQPGRSLRLSCAASGFTFSSYGMHWVRQAPGKGLEWVAVISYDGSNKYYADSVKGRFTISRDNSKNTLYLQMNSLRAEDTAVYYCAKGLEYYDSSRLYYPYYYYMDVWGKGTTVTVSS
VL: EIVLTQSPATLSLSPGERATLSCRASQSVSSYLAWYQQKPGQAPRLLIYDASKRATGIPARFSGSGSGTDFTLTISSLEPEDFAVYYCQQRSNYPITFGGGTKVEIK

Percent reduction of Sortilin levels in N2A cells (mouse Sortilin): 53.8%
Percent reduction of Sortilin levels in U251 cells (human Sortilin): 90.8%
B11: anti-Sortilin antibody S-29 (antibody, V domains shown)
VH: B13 VH
VL: not shown

Percent reduction of Sortilin levels in N2A cells (mouse Sortilin): 51.1%
Percent reduction of Sortilin levels in U251 cells (human Sortilin): 85%
B12: anti-Sortilin antibody S-28 (antibody, V domains shown)
VH: B13 VH
VL: not shown

MFI [1]: 21800 MFI
MFI [2]: 9600 MFI
B14: anti-Sortilin antibody S-29 (antibody, V domains shown)
VH: B13 VH
VL: not shown
notes: IgG

Percent reduction of Sortilin levels in N2A cells (mouse Sortilin): 67.7%
Percent reduction of Sortilin levels in U251 cells (human Sortilin): 73%
B17: anti-Sortilin antibody S-55 (antibody, V domains shown)
VH: QVQLQESGPGLVKPSETLSLTCAVSGYSISSGYYWGWIRQPPGKGLEWIGSIYHSGSTYYNPSLKSRVTISVDTSKNQFSLKLSSVTAADTAVYYCARGRPELGWDKYFQHWGQGTLVTVSS
VL: DIQMTQSPSSVSASVGDRVTITCRASQGISRWLAWYQQKPGKAPKLLIYAASSLQSGVPSRFSGSGSGTDFTLTISSLQPEDFATYYCQQANALPTFGGGTKVEIK
